Laboratory results published in patent publication US20230167174A1 (Novartis, published 2023).

T1: TREM2 (isoform 3) on transfected HEK293 cells (human)
T1 construct: also called BC032362
T1 chain: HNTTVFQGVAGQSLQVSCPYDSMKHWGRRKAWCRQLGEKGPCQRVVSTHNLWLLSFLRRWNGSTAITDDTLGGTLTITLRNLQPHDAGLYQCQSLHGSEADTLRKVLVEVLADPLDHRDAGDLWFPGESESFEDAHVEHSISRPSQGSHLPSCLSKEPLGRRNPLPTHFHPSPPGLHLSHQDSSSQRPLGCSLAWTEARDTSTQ

T2: human TREM2 on CHO-hDAP12-hTREM2 cells (human, UniProt Q9NZC2 19-230)
T2 sequence: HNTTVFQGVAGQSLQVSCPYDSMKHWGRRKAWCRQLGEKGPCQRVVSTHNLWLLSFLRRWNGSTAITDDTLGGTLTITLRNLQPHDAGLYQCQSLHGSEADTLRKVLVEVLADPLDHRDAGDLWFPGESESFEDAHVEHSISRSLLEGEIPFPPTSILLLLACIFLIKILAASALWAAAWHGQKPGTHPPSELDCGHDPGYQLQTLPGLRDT

T3: hTREM2 IgSF-hTREM1 stalk-hFc (human, UniProt Q9NZC2 19-132; Q9NP99 135-205, limits assumed)
T3 construct: domain: IgSF;domain: stalk region; also called hTREM2 IgSF-T1 stalk-hFc-bio; hTREM2 IgSF-hTREM1 stalk-hFc-bio
T3 sequence (looked up): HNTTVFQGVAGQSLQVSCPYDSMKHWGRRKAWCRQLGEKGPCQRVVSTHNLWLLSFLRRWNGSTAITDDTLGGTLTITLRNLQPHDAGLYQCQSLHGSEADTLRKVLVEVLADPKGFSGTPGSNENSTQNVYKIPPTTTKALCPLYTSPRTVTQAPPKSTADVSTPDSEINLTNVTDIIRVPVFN


Tests used:
[1] = target: T1, TREM2 (isoform 3) on transfected HEK293 …; assay: plasma membrane protein cell array, HEK293
Experimental: Human HEK293 cells were grown on glass slides and fixed. Test antibodies were added at 2 µg/ml. Slides were subsequently incubated with an AlexaFluor647 labelled anti-human IgG Fc detection antibody, followed by fluorescence imaging.

[2] = target: T4, cyTREM2 ECD (19-174)-APP-Avi (cynomolgus); assay: SPR, label free kinetics
T4 construct: range 19-174

[3] = target: T2, human TREM2 on CHO-hDAP12-hTREM2 cells; assay: cell-based or functional assay
[4] = target: T4, cyTREM2 ECD (19-174)-APP-Avi; assay: SET
[5] = target: T3, hTREM2 IgSF-hTREM1 stalk-hFc; assay: recombinant protein binding
[6] = target: T4, cyTREM2 ECD (19-174)-APP-Avi; assay: SPR (Biacore)

Row | binding result [1] | Kd [2] [nM] | Internalization compared to parental after 6 h [3] [fold] | Kd [4] [nM] | S/BG [5] | Kd [6] [nM] | Binder
1 | binds | 0.039 | 1.5 | 0.039 | > 20 | – | MOR044698 (antibody, V domains shown, also called MOR44698; MOR44698A) VH: QVQLVQSGAEVKKPGASVKVSCKASGYTFTGYHMSWVRQAPGQGLEWMGVINPVSGNTVYAQKFQGRVTMTRDTSISTAYMELSRLRSEDTAVYYCARIPSYTYAFDYWGQGTLVTVSS VL: DIQMTQSPSSLSASVGDRVTITCRASQDISNYLAWYQQKPGKAPKLLIYRASSLQSGVPSRFSGSGSGTDFTLTISSLQPEDFATYYCFQYRHMPSQTFGQGTKVEIKR
2 | – | – | – | – | – | 6.6 | MOR042596 (antibody, human IgG1, kappa, L234A L235A, V domains shown, full IgG; also called MOR42596) VH: QVQLVQSGAEVKKPGASVKVSCKASGYTFTGYHMSWVRQAPGQGLEWMGVINPVSGNTVYAQKFQGRVTMTRDTSISTAYMELSRLRSEDTAVYYCARIPSYTYAFDYWGQGTLVTVSS VL: DIQMTQSPSSLSASVGDRVTITCRASQDISNYLAWYQQKPGKAPKLLIYRASSLQSGVPSRFSGSGSGTDFTLTISSLQPEDFATYYCQQHGHSPTTFGQGTKVEIKR
